Measured values from article PMC5709467, “Solution structure and interaction with copper in vitro and in living cells of the first BIR domain of XIAP” (Scientific Reports, 2017).

Legend:
[1] = target: D71N/R72E mutant of BIR1 (1-105) of XIAP (human) (UniProt P98170); assay: SEC; oxidised protein (C12 disulfide), analytical gel filtration on Superdex 75 10/200 GL, 20 mM Bis-Tris pH 6.5
[2] = target: D71N/R72E mutant of BIR1 (1-105) of XIAP (human) (UniProt P98170); assay: MALDI-TOF mass spectrometry; oxidised D71N/R72E BIR1; covalent (disulfide-linked) dimer; compared with a sample treated with DTT
[3] = target: the molecule itself; assay: NMR 15N relaxation (R2/R1, rotational correlation time); reduced protein, about 0.3 mM, 20 mM Bis-Tris pH 6.5, 298 K

Row | stoichiometry N [1] | stoichiometry N [2] | Molecule | stoichiometry N [3]
1 | 2 | 2 | D71N/R72E mutant of BIR1 (1-105) of XIAP (from UniProt P98170 1-105) (domain or fragment) | –
2 | – | – | Wild-type BIR1 (1-105 aa), first BIR domain of XIAP (domain or fragment, human, UniProt P98170 1-105, looked up, 15N- or 15N,13C-labelled for NMR; cloned into pET-3a; In the oxidised state C12 of the two subunits form a disulfide bond; also called WT BIR1) MTFNSFEGSKTCVPADINKEEEFVEEFNRLKTFANFPSGSPVSASTLARAGFLYTGEGDTVRCFSCHAAVDRWQYGDSAVGRHRKVSPNCRFINGFYLENSATQS | 2
